Assay results from US6284513.

Columns and labels:
[1] = target: proteoglycan
[2] = target: thiopeptolide Ac-Pro-Leu-Gly-thioester-Leu-Leu-Gly-OEt (not provided)

Work on “human stromelysin catalytic domain protein (enzyme)” yielded a Proteoglycan Degradation (µg of Chondroitin Sulfate/h) (µg of Chondroitin Sulfate/h) [1] of 8 and a hydrolysis of the thiopeptolide substrate (Km, kcat) [2] of 270 µM.
